We go through four substances from patent EP2009022A1.

For one assay, the target named is Fc-CD95 (human) (UniProt P25445). The assay can be described thus: SPR (BIAcore 2000), biotinylated Fc-CD95 on streptavidin chip, ligand in solution, 1:1 model. (Surface plasmon resonance follows binding to a sensor surface in real time, without labels.)
The target in assay [1] is human CD95 (human) (UniProt P25445). The assay can be described thus: cell-based or functional assay.
The target is the same in assay [2]. The assay can be described thus: FACS on KB cells, anti-Flag mAb M2 and PE anti-mouse IgG.
The target in another assay is murine CD95 (murine) (UniProt P25446). The assay can be described thus: FACS on MBL2-CD95 cells, anti-Flag mAb M2 and PE anti-mouse IgG.
Sequence of UniProt P25446 (P25446 22-327): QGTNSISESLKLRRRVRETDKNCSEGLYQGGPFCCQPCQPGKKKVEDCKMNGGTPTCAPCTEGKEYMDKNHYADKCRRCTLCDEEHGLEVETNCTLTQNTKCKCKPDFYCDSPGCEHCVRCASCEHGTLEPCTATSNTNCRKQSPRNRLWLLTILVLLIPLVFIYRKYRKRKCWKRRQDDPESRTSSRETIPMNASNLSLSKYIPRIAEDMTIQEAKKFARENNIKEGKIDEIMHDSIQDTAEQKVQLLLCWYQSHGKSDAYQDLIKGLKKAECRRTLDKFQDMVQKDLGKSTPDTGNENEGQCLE
Another assay addresses TRAILR1 (human) (UniProt O00220). The assay can be described thus: cell-based or functional assay.
Sequence of UniProt O00220 (O00220 24-468): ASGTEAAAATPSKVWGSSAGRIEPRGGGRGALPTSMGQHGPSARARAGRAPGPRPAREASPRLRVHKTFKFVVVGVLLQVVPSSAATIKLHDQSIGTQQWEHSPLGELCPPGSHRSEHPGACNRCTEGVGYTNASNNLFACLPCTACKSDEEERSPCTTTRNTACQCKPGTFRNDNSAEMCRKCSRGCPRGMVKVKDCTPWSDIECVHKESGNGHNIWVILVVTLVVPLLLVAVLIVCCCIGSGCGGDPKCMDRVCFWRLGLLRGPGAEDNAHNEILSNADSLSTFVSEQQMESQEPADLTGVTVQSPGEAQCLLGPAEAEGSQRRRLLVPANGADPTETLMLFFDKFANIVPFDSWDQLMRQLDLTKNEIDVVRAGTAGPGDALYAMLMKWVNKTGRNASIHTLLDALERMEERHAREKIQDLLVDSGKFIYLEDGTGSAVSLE

A word on the Kd: it is the equilibrium constant for the complex coming apart. Higher therefore signals a looser complex. In the assay with Fc-CD95 (human), “Flag-TNC-mCD95L(137-279) (from UniProt P10039 110-139) (ligand)” showed a Kd of 26 nM. Take Flag-hCD95L(137-281) (ligand): the protection of KB cells from Fc-hCD95L-induced cell death (competition assay) in the assay with human CD95 (human) [1] is 50 ng/mL. Moreover, the lowest concentration with significant binding with human CD95 (human) [2] turned out to be 0.3 µg/mL; with murine CD95 (murine) it was 0.1 µg/mL. In the assay with Fc-CD95 (human), this substance displayed a Kd of 39 nM. As for Flag-hTRAIL(95-281) (ligand), the cell death of CHX-sensitized KB cells, no crosslinking (crystal violet) with TRAILR1 (human) is 10 ng/mL. Consider mCD95L(137-279) (ligand), for which the protection of KB cells from Fc-hCD95L-induced cell death (competition assay) with human CD95 (human) [1] was above 1000 ng/mL.
